According to paper doi:10.1101/2025.02.01.633781:

Target: FUS (recombinant, produced in-house) (UniProt P35637 1-526)
Test: EMSA

Sequence of FUS (recombinant, produced in-house) (P35637 whole entry): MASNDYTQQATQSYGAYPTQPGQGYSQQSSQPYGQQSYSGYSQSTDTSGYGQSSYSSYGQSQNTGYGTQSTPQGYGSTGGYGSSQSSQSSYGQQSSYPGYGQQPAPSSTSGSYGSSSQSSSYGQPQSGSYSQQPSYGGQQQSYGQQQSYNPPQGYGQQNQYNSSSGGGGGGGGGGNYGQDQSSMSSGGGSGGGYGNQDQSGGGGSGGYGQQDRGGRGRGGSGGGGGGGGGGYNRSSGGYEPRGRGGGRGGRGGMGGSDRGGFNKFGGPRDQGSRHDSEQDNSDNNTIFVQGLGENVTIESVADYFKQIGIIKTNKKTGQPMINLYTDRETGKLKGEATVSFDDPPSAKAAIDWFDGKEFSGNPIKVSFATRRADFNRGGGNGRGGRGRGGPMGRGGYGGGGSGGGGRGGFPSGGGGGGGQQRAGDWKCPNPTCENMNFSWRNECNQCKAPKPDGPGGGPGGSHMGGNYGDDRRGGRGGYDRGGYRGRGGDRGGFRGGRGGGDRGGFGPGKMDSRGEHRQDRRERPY

## GGACUCGGACUUGGACUCUGGACUUUGGAC (ssRNA) [4xDRACH]
  binding result: binds
